Data on one molecule can be found in US20090297503A1 (Chugai, published 2009).

Experiment [1] has as its target T1, Factor VIII A1 subunit (human, UniProt P00451 20-391).
T1 construct: only the A1 subunit stood in the assay; also called A1 domain
T1 sequence: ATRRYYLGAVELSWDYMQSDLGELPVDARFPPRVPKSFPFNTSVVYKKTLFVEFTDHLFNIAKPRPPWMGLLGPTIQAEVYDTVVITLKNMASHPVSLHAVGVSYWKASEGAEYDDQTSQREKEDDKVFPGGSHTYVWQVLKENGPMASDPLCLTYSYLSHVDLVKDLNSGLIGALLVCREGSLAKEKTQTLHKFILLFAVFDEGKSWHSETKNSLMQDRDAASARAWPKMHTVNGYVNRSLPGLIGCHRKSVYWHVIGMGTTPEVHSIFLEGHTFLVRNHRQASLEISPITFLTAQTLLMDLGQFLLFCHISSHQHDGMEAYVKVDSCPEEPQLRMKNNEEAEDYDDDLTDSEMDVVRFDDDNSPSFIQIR
Description: ELISA: Factor VIII A1 subunit (50 nM) coated on microtiter wells, biotinylated moAb216 added, detected with peroxidase-conjugated streptavidin, absorbance at 492 nm. Here is the method: (§1) Microtiter wells were coated with Factor VIII or its subunit (50 nM) in 20 mM Tris, and 0.15 M NaCl, pH 7.4, overnight at 4° C. The wells were washed with PBS containing 0.01% Tween 20 and were blocked with PBS containing 5% HSA for two hours at 37° C. The indicated concentrations of biotinylated-moAb216 were then added in 20 mM HEPES, 0.1 M NaCl, 5 mM CaCl₂, and 0.01% Tween 20, pH 7.2 (HBS-buffer) containing 1% HSA for two hours at 37° C. Bound IgG was quantified by the addition of peroxidase-conjugated streptavidin and O-phenylenediamine dihydrochloride substrate. Reactions were stopped by the addition of 2 M H₂SO₄, and absorbance was measured at 492 nm. The amount of nonspecific binding of anti-mouse peroxidase-conjugated IgG in the absence of moAb216 was <5% of the total signal. Specific binding was recorded after subtracting the nonspecific binding.

For experiment [2], the target named is T2, Factor VIII heavy chain (human, UniProt P00451 20-1667, limits assumed).
T2 construct: only the heavy chain part stood in the assay; also called HCh
Description: SPR (BIAcore X), moAb216 coupled to CM5 chip, heavy chain in flow, 37 C. Here is the method:
(§2) The kinetics of moAb216 interaction with Factor VIII was determined by SPR-based assay using a BIAcore X instrument (Biacore AB, Uppsala, Sweden) as previously reported. moAb216 was covalently coupled to the surface of CM5 chip at a coupling density of up to 5 ng/mm². Binding (association) of the ligand was monitored in the running buffer (10 mM HEPES pH 7.4, 0.1 M NaCl, 1 mM CaCl₂, 0.005% polysorbate 20) for two minutes at a flow rate 20 μl/min. The dissociation of bound ligand was recorded over a two-minute period by replacing the ligand-containing buffer with buffer only. The level of nonspecific binding as a result of ligand binding to the uncoated chip was subtracted from the signal. Reactions were performed at 37° C. The rate constants for association (kₐₛₛₒ) and dissociation (kdiss) were determined by nonlinear regression analysis using the evaluation software provided by Biacore AB. The dissociation constant (Kd) was calculated as kdiss/kₐₛₛₒ.
(§3) Reactions were performed as described under “Materials and Methods”. Parameter values were calculated by nonlinear regression analysis using the evaluation software provided by Biacore AB. ^{#}Values were calculated as kdiss/kₐₛₛₒ. *not determined

Experiment [3] has as its target T3, recombinant human blood coagulation Factor VIII (Kogenate FS) (human, UniProt P00451 20-2351).
T3 construct: The background describes the protein as a heavy chain/light chain heterodimer and numbers 2,332 residues; the entry may also carry the signal peptide; also called F.VIII
Description: SPR (BIAcore X), moAb216 coupled to CM5 chip, Factor VIII in flow, 37 C; calculated as kdiss/kasso. Here is the method: as §2, §3

Experiment [4] deals with T3, recombinant human blood coagulation …. Description: SPR (BIAcore X), moAb216 coupled to CM5 chip, Factor VIII in flow, 37 C. On the procedure:
as §2, §3

Experiment [5] addresses T4, Factor VIII A2 subunit (human, UniProt P00451 392-759).
T4 construct: only the A2 subunit stood in the assay; also called A2 domain
T4 sequence: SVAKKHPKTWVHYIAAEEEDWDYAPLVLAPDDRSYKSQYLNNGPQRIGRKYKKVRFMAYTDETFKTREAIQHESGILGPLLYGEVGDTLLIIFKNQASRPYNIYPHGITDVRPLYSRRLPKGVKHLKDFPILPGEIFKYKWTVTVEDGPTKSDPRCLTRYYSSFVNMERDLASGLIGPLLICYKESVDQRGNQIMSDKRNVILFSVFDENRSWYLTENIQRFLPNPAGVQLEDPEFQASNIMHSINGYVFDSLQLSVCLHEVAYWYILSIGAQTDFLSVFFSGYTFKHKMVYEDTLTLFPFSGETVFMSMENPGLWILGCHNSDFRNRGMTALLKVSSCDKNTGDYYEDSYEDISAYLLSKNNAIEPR
The experiment can be described thus: SPR (BIAcore X), moAb216 coupled to CM5 chip, A2 in flow, 37 C; calculated as kdiss/kasso. On the procedure: as §2, §3

Experiment [6] has as its target T4, Factor VIII A2 subunit. The experiment can be described thus: SPR (BIAcore X), moAb216 coupled to CM5 chip, A2 in flow, 37 C. On the procedure:
as §2, §3

In experiment [7] the target is T2, Factor VIII heavy chain. The experiment can be described thus: SPR (BIAcore X), moAb216 coupled to CM5 chip, heavy chain in flow, 37 C; calculated as kdiss/kasso. On the procedure: as §2, §3
In experiment [8] the target is T3, recombinant human blood coagulation …. Description: ELISA: Factor VIII (50 nM) coated on microtiter wells, biotinylated moAb216 added, detected with peroxidase-conjugated streptavidin, absorbance at 492 nm. Here is the method: as §1
Experiment [9] deals with T2, Factor VIII heavy chain. Description: ELISA: Factor VIII heavy chain (50 nM) coated on microtiter wells, biotinylated moAb216 added, detected with peroxidase-conjugated streptavidin, absorbance at 492 nm. Here is the method: as §1
For experiment [10], the target named is T5, Factor VIII light chain (human, UniProt P00451 1668-2351).
T5 construct: only the light chain part stood in the assay; also called LCh
T5 sequence: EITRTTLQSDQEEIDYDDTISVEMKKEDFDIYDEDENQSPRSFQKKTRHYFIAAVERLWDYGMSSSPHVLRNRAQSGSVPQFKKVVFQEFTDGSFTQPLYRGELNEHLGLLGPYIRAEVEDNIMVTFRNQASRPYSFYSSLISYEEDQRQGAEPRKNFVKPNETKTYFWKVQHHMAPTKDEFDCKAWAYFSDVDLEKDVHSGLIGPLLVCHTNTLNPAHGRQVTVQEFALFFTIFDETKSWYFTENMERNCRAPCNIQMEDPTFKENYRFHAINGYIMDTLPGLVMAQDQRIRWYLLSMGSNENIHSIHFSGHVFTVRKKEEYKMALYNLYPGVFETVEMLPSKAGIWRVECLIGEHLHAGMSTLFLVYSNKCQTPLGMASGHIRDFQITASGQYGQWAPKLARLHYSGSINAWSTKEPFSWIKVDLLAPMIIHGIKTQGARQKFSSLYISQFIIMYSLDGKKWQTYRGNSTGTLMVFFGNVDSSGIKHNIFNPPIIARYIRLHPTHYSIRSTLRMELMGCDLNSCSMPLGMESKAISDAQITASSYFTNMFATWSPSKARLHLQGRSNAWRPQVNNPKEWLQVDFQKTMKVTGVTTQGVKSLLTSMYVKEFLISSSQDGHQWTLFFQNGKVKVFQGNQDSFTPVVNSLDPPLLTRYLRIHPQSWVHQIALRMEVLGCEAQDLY
Description: ELISA: Factor VIII light chain (50 nM) coated on microtiter wells, biotinylated moAb216 added, detected with peroxidase-conjugated streptavidin, absorbance at 492 nm. Here is the method:
as §1

Experiment [11] deals with T3, recombinant human blood coagulation …. Description: cell-based or functional assay.

Where only a bound is given, the exact number is not on record here.

B1: anti-Factor VIII monoclonal antibody moAb216 (antibody, V domains shown)
VH: EVRLVESGGGLVKPGGSLKLSCAASEFTFSSYSMSWVRQTPEKRLEWVASINSGGRTFYPDSVKGRFTISRDNARNILVLQMSSLRSEDTAMYYCARVIYYDYGAYALDYWGQGTSLTVSS
VL: EIVLTQSPALMAAYPGEKVTITCSVSSSISSSNLHWYQQKSETSPKLWIYGTSNLASGVPVRFSGSGSGTSYSLTISSMEAEDAATYYCQQWNIYPLTFGAGTKLELK
notes: It was biotinylated for the ELISAs and coupled covalently to a CM5 chip for SPR; also called moAb216 IgG; biotinylated moAb216
B1: the binding result in [1] and in [10] was “no binding (tested: 1.25 µg/ml)” in each case. For the same molecule, the koff in experiment [2] was 0.0009 s⁻¹; in experiment [4], 0.001 s⁻¹; in experiment [6] it was 0.0002 s⁻¹. The results for the kon in [2], in [4] and in [6] were 294000 M⁻¹ s⁻¹, 930000 M⁻¹ s⁻¹ and 238000 M⁻¹ s⁻¹, respectively. The values for the Kd in experiment [3], in experiment [5] and in experiment [7] were 1.1 nM, 0.8 nM and 3 nM, respectively. In addition, the “EC50 (read off the curve)” value in experiment [8] was around 0.08 µg/mL; in experiment [9], around 0.09 µg/mL. Further, the “percentage of Factor Xa cleavage at Arg372 (A2/A1-A2 ratio, densitometry)” value in experiment [11] was at most 2 times. In addition, the “rate of thrombin cleavage at Arg372 (A2 product/A1-A2 substrate ratio, densitometry of Western blot)” value in experiment [11] was around 2 times.
